How the values were obtained:
[1] = target: F11R (human) (UniProt Q9Y624); assay: flow cytometry, HEK293T membrane protein array, 20 µg/mL and 5 µg/mL
[2] = target: T1, MC2R (human, UniProt Q01718 1-297); assay: as above
T1 construct: whole, on cells
Text: (§1) In the membrane protein array, genetic engineering methods are used to construct the full-length cDNA sequences of human membrane proteins into expression vectors, which are then transiently transfected into HEK293T cells and arranged into an array by using microfluidic technology or chip printing technology. It is a high-throughput screening technology for studying the interaction between test substances and membrane proteins.
(§2) A chimeric rabbit monoclonal antibody, C-CAR168 scFv-RabFc, was generated by linking the anti-CD20 scFv (e.g., derived from the Ofatumumab mAb) and the anti-BCMA scFv (e.g., derived from the BCMA-20 mAb) in frame with a rabbit IgG Fc region. The chimeric antibody was added at a concentration of 20 μg/mL to the HEK293T cell array transiently transfected with 5220 membrane proteins. […] The average fluorescence intensity of its binding to CD20 and BCMA in flow cytometry was about 60-fold and 110-fold of that of the negative control group, respectively (FIG. 8B). […] This is mainly due to the binding between FCGR1A and the rabbit-derived Fc of the recombinant protein; so there is no relevant risk in clinical applications.

[3] = target: T2, CLEC2B (human, UniProt Q92478 1-149); assay: as above
T2 construct: whole, on cells
T2 sequence (looked up): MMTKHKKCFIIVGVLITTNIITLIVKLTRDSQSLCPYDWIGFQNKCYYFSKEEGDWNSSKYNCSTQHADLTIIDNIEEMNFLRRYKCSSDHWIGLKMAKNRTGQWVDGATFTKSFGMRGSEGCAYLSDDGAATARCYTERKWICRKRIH
Text: as §1, §2

[4] = target: T3, MPZ (human, UniProt P25189 30-248); assay: as above
T3 construct: whole, on cells
T3 sequence (looked up): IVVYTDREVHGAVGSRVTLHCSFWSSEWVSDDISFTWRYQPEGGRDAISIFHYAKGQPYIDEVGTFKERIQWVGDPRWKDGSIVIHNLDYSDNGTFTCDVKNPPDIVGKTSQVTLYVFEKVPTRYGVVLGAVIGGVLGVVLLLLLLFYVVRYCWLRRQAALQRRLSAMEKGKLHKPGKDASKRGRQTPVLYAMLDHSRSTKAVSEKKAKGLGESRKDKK
Text: as §1, §2

[5] = target: FCGR1A (human) (UniProt P12314); assay: flow cytometry, HEK293T membrane protein array
FCGR1A (human), sequence (P12314 16-374): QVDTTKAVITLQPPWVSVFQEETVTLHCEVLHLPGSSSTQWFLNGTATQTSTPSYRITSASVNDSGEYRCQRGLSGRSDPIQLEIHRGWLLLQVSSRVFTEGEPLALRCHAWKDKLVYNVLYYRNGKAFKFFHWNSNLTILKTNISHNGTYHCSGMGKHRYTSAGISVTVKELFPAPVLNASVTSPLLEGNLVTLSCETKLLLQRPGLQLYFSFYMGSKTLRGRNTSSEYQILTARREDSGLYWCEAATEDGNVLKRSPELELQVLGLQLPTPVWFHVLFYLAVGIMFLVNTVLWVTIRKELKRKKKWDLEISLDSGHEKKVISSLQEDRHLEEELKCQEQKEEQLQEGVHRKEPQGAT

[6] = target: T4, human BCMA (human, UniProt Q02223 1-184); assay: flow cytometry, HEK293T membrane protein array
T4 construct: whole, on cells; also called B-cell maturation antigen; TNFRSF17
T4 sequence (looked up): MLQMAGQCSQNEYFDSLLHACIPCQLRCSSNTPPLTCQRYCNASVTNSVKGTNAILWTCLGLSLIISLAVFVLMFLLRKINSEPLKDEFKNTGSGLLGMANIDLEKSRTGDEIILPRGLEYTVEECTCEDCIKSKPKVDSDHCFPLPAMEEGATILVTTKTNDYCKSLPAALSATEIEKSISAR
Text: as §1, §2

[7] = target: T5, human CD20 (human, UniProt P11836 1-297); assay: flow cytometry, HEK293T membrane protein array
T5 construct: whole, on cells; also called B1; MS4A
T5 sequence (looked up): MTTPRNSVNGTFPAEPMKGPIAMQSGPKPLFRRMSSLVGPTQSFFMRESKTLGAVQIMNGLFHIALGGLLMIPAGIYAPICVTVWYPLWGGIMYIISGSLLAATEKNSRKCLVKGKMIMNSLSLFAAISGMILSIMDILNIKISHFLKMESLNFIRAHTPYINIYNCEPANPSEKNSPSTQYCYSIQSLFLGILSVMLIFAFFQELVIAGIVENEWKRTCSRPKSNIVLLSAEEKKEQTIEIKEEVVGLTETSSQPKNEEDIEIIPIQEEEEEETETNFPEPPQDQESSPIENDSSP
Text: as §1, §2

F11R (human), sequence (Q9Y624 28-299, stated change not applied): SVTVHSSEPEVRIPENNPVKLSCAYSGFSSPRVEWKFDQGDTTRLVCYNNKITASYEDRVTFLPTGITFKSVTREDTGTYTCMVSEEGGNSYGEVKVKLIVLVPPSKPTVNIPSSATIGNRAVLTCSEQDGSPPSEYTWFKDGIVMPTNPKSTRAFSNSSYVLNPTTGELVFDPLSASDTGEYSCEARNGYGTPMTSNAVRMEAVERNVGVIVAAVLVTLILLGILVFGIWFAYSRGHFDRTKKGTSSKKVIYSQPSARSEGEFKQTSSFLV
T1 sequence (Q01718 whole entry): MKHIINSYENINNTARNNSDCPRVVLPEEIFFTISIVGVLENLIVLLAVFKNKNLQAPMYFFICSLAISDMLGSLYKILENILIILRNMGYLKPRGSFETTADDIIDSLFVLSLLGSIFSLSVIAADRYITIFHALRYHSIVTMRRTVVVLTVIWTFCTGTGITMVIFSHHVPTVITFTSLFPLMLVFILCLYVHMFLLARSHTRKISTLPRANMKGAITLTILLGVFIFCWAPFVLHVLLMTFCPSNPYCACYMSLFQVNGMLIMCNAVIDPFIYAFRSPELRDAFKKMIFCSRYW

B1: C-CAR168 scFv-RabFc (Fc fusion)
chain: EIVLTQSPATLSLSPGERATLSCRASQSVSSYLAWYQQKPGQAPRLLIYDASNRATGIPARFSGSGSGTDFTLTISSLEPEDFAVYYCQQRSNWPITFGQGTRLEIKGSTSGGGSGGGSGGGGSSEVQLVESGGGLVQPGRSLRLSCAASGFTFNDYAMHWVRQAPGKGLEWVSTISWNSGSIGYADSVKGRFTISRDNAKKSLYLQMNSLRAEDTALYYCAKDIQYGNYYYGMDVWGQGTTVTVSSGGGGSDIQMTQSPSSLSASVGDRVTITCRASQGISNYLNWYQQKPGKAPKPLIYYTSNLQSGVPSRFSGSGSGTDYTLTISSLQPEDFATYYCMGQTISSYTFGQGTKLEIKGGGGSGGGGSGGGGSEVQLVESGGGLVQPGGSLRLSCAASGFTFSNFDMAWVRQAPGKGLVWVSSITTGADHAIYADSVKGRFTISRDNAKNTLYLQMNSLRAEDTAVYYCVRHGYYDGYHLFDYWGQGTLVTVSS
notes: also called chimeric rabbit monoclonal antibody; not shown: rabbit IgG Fc region
average fluorescence intensity, fold of the negative control group [1]: < 2 fold | average fluorescence intensity, fold of the negative control group [2]: ≤ 2 fold | average fluorescence intensity, fold of the negative control group [3]: ≤ 2 fold | average fluorescence intensity, fold of the negative control group [4]: ≤ 2 fold | average fluorescence intensity, fold of the negative control group [5]: 2.5 fold | average fluorescence intensity, fold of the negative control group [6]: ~110 fold | average fluorescence intensity, fold of the negative control group [7]: ~60 fold

From US20260108556A1 (ABELZETA, published 2026)
